# Data reported in article PMC3776922.
# Target: LAT-1(37-542)^GPS(T530A)::6xHis (C. elegans)
# Experiment: AUC; sedimentation equilibrium of the dimer fraction of the LAT-1 ectodomain; 20 uM - 60 uM protein, native conditions in PBS, 20°C / room temperature, 48 hr at 17,000 and 20,000 rpm, ideal monodisperse model
substance,measurement,value
LAT-1(37-542)^GPS(T530A)::6xHis (domain or fragment),stoichiometry N,2
